# Data taken from patent publication US20060292657A1, “Phex substrates and methods using same” (priority 2003, published 2006).
# B1: human recombinant secPHEX (Homo sapiens) (protein)
# chain: SLQAKQEYCLKPECIEAAAAILSKVNLSVDPCDNFFRFACDGWISNNPIPEDMPSYGVYPWLRHNVDLKLKELLEKSISRRRDTEAIQKAKILYSSCMNEKAIEKADAKPLLHILRHSPFRWPVLESNIGPEGVWSERKFSLLQTLATFRGQYSNSVFIRLYVSPDDKASNEHILKLDQATLSLAVREDYLDNSTEAKSYRDALYKFMVDTAVLLGANSSRAEHDMKSVLRLEIKIAEIMIPHENRTSEAMYNKMNISELSAMIPQFDWLGYIKKVIDTRLYPHLKDISPSENVVVRVPQYFKDLFRILGSERKKTIANYLVWRMVYSRIPNLSRRFQYRWLEFSRVIQGTTTLLPQWDKCVNFIESALPYVVGKMFVDVYFQEDKKEMMEELVEGVRWAFIDMLEKENEWMDAGTKRKAKEKARAVLAKVGYPEFIMNDTHVNEDLKAIKFSEADYFGNVLQTRKYLAQSDFFWLRKAVPKTEWFTNPTTVNAFYSASTNQIRFPAGELQKPFFWGTEYPRSLSYGAIGVIVGHEFTHGFDNNGRKYDKNGNLDPWWSTESEEKFKEKTKCMINQYSNYYWKKAGLNVKGKRTLGENIADNGGLREAFRAYRKWINDRRQGLEEPLLPGITFTNNQLFFLSYAHVRCNSYRPEAAREQVQIGAHSPPQFRVNGAISNFEEFQKAFNCPPNSTMNRGMDSCRLW
# notes: pure soluble form of PHEX (secPHEX); made in house
# Tests used:
# Test in all cases: Kinetic parameters for hydrolysis of internally quenched fluorogenic peptides by secPHEX
# Type in all cases: biochemical, human
# Details in all cases: other: 37° C., 10 mM Bis-Tris buffer pH 5.5, 150 mM NaCl
# [1] = substrate: CSCC[C@H](NC(=O)[C@H](CC(C)C)NC(=O)c1ccccc1N)C(=O)N[C@@H](CCSC)C(=O)N[C@@H](CC(=O)O)C(=O)N[C@@H](Cc1ccccc1)C(=O)N[C@@H](CCCNC(=N)N)C(=O)NCC(=O)N[C@@H](CCC(N)=O)C(=O)NCCNc1ccc([N+](=O)[O-])cc1[N+](=O)[O-]
# Experimental: (§1) The human recombinant secPHEX was obtained following the procedure previously described (17, WO 00/50580). Purified secPHEX concentration was determined using the Bradford method (DC protein assay kit; Bio-Rad, Mississauga, ON, Canada). Membrane-bound recombinant human PHEX was expressed in LLC-PK1 cells (17, (WO 00/50580)) and membranes were prepared essentially as described by Guo et al. (34). Briefly, transfected cells resuspended in lysis buffer (150 mM NaCl, 20 mM Tris.HCl, pH 7.6) were disrupted by sonication. Cell debris were removed by centrifugation at 300 g for 15 min at 4 °C. Membranes were collected by centrifugation at 30,000 g for 50 min and solubilized for 2h with 1% n-dodecyl-β-D-maltoside in lysis buffer. Insoluble material was pelleted by centrifugation at 10,000 g for 15 min and protein concentrations of the supernatant determined using the Bradford method described above. PHEX amounts were evaluated by immunoblotting as described previously (17). NEP expression and purification were performed as described previously (36).
# (§2) The hydrolysis of the IQFPs, at 37° C., in 10 mM Bit-Tris buffer pH 5.5 (0.35 to 1.0 ml final volume) containing 150 mM NaCl, was continuously followed measuring the fluorescence at γem=420 nm and γex=320 nm in a Hitachi F-2000™ spectrofluorometer. The cuvefte containing the buffer and the substrate was placed in a thermostatically controlled cell compartment for 5 min before the addition of the enzyme and the increase in fluorescence with time was continuously recorded for 5-10 min. The enzyme concentration for initial rate determination was chosen at a level intended to hydrolyze less than 5% of the substrate present. The slope was converted into micromoles of substrate hydrolyzed per min based on a calibration curve obtained from complete hydrolysis of each peptide. The inner-filter effect was corrected using an empirical equation as previously described (43). The kinetic parameters Km and kcat were calculated by the non-linear regression data analysis Grafit program (42). The kcat/Km values were calculated as the ratio of these two determined parameters. The apparent second order rate constant kcat/Km (*kIt/Km) was determined under pseudo first-order conditions, where [S]<<Km. These determinations were performed in two different substrate concentrations and the errors were less than 5% for any obtained value.
# (§3) To determine the position of cleavage in peptides of the IQFPs combinatorial libraries, the products resulting from hydrolysis by secPHEX were submitted to N-terminal amino acid sequencing in a PPSQ-23protein sequencer (Shimadzu Tokyo, Japan). The scissile bonds in the IQFPs secPHEX substrates derived from PTHrP107-139, FGF-23and MEPE were determined by amino acid sequencing and by MALDI-TOF™ mass spectrometry (TofSpec-E™, Micromass, Manchester, U.K.) after isolation of the fragments resulting from the hydrolysis by secPHEX by analytical HPLC.
# (§4) The assays were performed at 37° C., in 10 mM Bis-Tris buffer pH 5.5, containing 150 mM NaCl. Measurements were made as described under the heading “Experimental Procedures” above. Cleavage sites are indicated as arrows (↓). The standard deviations of the kinetic constants were less than 5%.
# (§5) The assays were performed at 37° C., in 10 mM Bis-Tris buffer pH 5.5, containing 150 mM NaCl. Measurements were made as described under the heading “Experimental Procedures” above. Cleavage sites are indicated by arrows (↓). The standard deviations of the kinetic constants were less than 5%.
# (§6) The assays were. performed at 37° C., in 10 mM Bis-Tris buffer pH 5.5, containing 150 mM NaCl. Measurements were made as described under the heading “Experimental Procedures” above. Cleavage sites are indicated by arrows (↓). The standard deviations of the kinetic constants were less than 5%.
# (§7) The assays were performed at 37° C., in 10 mM Bis-Tris buffer pH 5.5, containing 150 mM NaCl. Measurements were made as described under “Experimental Procedures”. […]
# [2] = substrate: C[C@H](NC(=O)[C@H](CO)NC(=O)c1ccccc1N)C(=O)N[C@@H](CCC(=O)O)C(=O)N[C@@H](CC(=O)O)C(=O)N[C@@H](CC(N)=O)C(=O)N[C@@H](CO)C(=O)N1CCC[C@H]1C(=O)N[C@@H](CCC(N)=O)C(=O)NCCNc1ccc([N+](=O)[O-])cc1[N+](=O)[O-]
# Experimental: as §1, §2, §3, §4, §5, §6, §7
# [3] = substrate: NC(=O)[C@H](CCCCNc1ccc([N+](=O)[O-])cc1[N+](=O)[O-])NC(=O)[C@H](Cc1ccc(O)cc1)NC(=O)[C@H](CC(=O)O)NC(=O)[C@H](CO)NC(=O)[C@H](Cc1ccccc1)NC(=O)CNC(=O)c1ccccc1N
# Experimental: as §1, §2, §3, §4, §5, §6, §7
# [4] = substrate: N=C(N)NCCC[C@H](NC(=O)c1ccccc1N)C(=O)N[C@@H](CCCNC(=N)N)C(=O)N[C@@H](CC(=O)O)C(=O)N[C@@H](CC(=O)O)C(=O)N[C@@H](CO)C(=O)N[C@@H](CO)C(=O)N[C@@H](CCC(=O)O)C(=O)N[C@@H](CCC(N)=O)C(=O)NCCNc1ccc([N+](=O)[O-])cc1[N+](=O)[O-]
# Experimental: as §1, §2, §3, §4, §5, §6, §7
# [5] = substrate: CC(C)[C@H](NC(=O)[C@H](CC(=O)O)NC(=O)[C@H](Cc1ccc(O)cc1)NC(=O)CNC(=O)[C@H](CC(N)=O)NC(=O)c1ccccc1N)C(=O)N[C@@H](Cc1ccc(O)cc1)C(=O)N[C@@H](Cc1c[nH]cn1)C(=O)N[C@@H](CCC(N)=O)C(=O)NCCNc1ccc([N+](=O)[O-])cc1[N+](=O)[O-]
# Experimental: as §1, §2, §3, §4, §5, §6, §7
protein,measurement,setting,value
B1,Km,[1],17.0 µM
same,kcat,[1],0.8 s⁻¹
same,kcat/Km,[1],45000 M⁻¹ s⁻¹
same,Km,[2],22.0 µM
same,kcat,[2],0.3 s⁻¹
same,kcat/Km,[2],13600 M⁻¹ s⁻¹
same,Km,[3],53.2 µM
same,kcat,[3],1.3 s⁻¹
same,kcat/Km,[3],24400 M⁻¹ s⁻¹
same,Km,[4],5.3 µM
same,kcat,[4],0.5 s⁻¹
same,kcat/Km,[4],94300 M⁻¹ s⁻¹
same,Km,[5],9.0 µM
same,kcat,[5],0.01 s⁻¹
same,kcat/Km,[5],1100 M⁻¹ s⁻¹
